Measurements: patent US20120263745A1 (DUKE UNIVERSITY, published 2012)
Where no end group is shown, it is not given here.

T1: Recombinant Chlamydial Protease-like Activity Factor (CPAF), his-tagged, expressed in E. coli BL21 (DE3) from … (C. trachomatis, UniProt O84866 17-234; O84866 276-601)
T1 sequence 1: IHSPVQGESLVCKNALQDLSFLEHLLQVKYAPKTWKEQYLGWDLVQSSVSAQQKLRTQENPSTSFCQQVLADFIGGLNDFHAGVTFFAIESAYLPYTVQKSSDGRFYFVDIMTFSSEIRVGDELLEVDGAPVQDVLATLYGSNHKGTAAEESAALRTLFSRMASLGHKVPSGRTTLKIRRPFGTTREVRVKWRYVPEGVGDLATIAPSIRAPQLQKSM
T1 sequence 2: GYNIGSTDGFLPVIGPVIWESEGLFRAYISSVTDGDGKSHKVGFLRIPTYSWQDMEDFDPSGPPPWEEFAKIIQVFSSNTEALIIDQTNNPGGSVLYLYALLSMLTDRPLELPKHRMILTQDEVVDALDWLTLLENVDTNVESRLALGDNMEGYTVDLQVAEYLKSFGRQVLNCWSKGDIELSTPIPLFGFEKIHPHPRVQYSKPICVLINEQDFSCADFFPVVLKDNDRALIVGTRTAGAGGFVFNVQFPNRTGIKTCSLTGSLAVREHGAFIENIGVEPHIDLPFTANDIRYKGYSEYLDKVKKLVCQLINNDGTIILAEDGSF

T2: Abz-tagged model CPAF substrate Abz-V-R-L-R-S-S-V-P-G-V-NH2 (SEQ ID NO:9), derived from human vimentin
T2 chain: VRLRSSVPGV

T3: Peptide of SEQ ID NO:7 (CPAF inhibitory segment plus nine C-terminal arginines) (not fully specified)
T3 chain: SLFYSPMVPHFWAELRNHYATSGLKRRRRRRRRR

T4: Sequence-scrambled control peptide H-NFALSHFRLPLSTYKEMPYVSHWAGRRRRRRRRR-NH2 (SEQ ID NO:11)
T4 chain: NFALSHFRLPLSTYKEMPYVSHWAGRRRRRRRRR


Columns and labels:
[1] = target: T1, Recombinant Chlamydial Protease-like …; assay: cell-based or functional assay
[2] = target: T2, Abz-tagged model CPAF substrate …
[3] = target: Endogenous Ct288 from EB lysates
[4] = target: Endogenous Ct694 from EB lysates
[5] = target: Endogenous Tarp from EB lysates
[6] = target: T3, Peptide of SEQ ID NO:7 (CPAF inhibitory …)
[7] = target: Recombinant CdsQ, type-III secretion (T3S) core component
[8] = target: Recombinant Ct584, T3S needle component
[9] = target: Recombinant Mcsc, T3S chaperone
[10] = target: T4, Sequence-scrambled control peptide …

Binder	IC50, inhibition of CPAF cleavage of the Abz-tagged model substrate SEQ ID NO:9 (HPLC-based assay, 62.5 nM CPAF, 0.5 mM substrate) [1]	IC50, inhibition of CPAF cleavage of the Abz/3-nitrotyrosine model substrate SEQ ID NO:10 (FRET-based assay, 62.5 nM CPAF) [1]	fold greater inhibition than SEQ ID NO:2 (HPLC-based assay) [1]	fold greater inhibition than lactacystin (HPLC-based assay) [1]	KM of CPAF proteolysis of the model substrate (HPLC-based assay) [2]	kcat of CPAF proteolysis of the model substrate (HPLC-based assay) [2]	kcat/KM of CPAF proteolysis of the model substrate (HPLC-based assay) [2]	incubation of EB lysates with recombinant CPAF, immunoblot (FIG. 7) [3]	incubation of EB lysates with recombinant CPAF, immunoblot (FIG. 7) [4]	incubation of EB lysates with recombinant CPAF, immunoblot (FIG. 7) [5]	CPAF cleavage of GST-chlamydial substrates in vitro (SDS-PAGE, FIG. 8E) [6]	incubation with recombinant CPAF, immunoblot (FIG. 5B) [7]	incubation with recombinant CPAF, immunoblot (FIG. 5B) [8]	incubation with recombinant CPAF, immunoblot (FIG. 5B) [9]	CPAF cleavage of GST-chlamydial substrates in vitro (SDS-PAGE, FIG. 8E) [10]
SLFYSPMVPHFWAELRNHYATSGLKRRRRRRRRR (not fully specified (C-terminus)) [Peptide of SEQ ID NO:7 (CPAF inhibitory segment plus nine C-terminal arginines)]	50 nM	30 nM	~30 fold	~200 fold											
SLFYSPMVPHFWAELRNHYATSGLK (not fully specified (C-terminus)) [Peptide of SEQ ID NO:2 (CPAF inhibitory segment, SLFYSPMVPHFWAELRNHYATSGLK)]	1600 nM														
Recombinant Chlamydial Protease-like Activity Factor (CPAF), his-tagged, expressed in E. coli BL21 (DE3) from pET30b-CPAF (protein) chain 1: IHSPVQGESLVCKNALQDLSFLEHLLQVKYAPKTWKEQYLGWDLVQSSVSAQQKLRTQENPSTSFCQQVLADFIGGLNDFHAGVTFFAIESAYLPYTVQKSSDGRFYFVDIMTFSSEIRVGDELLEVDGAPVQDVLATLYGSNHKGTAAEESAALRTLFSRMASLGHKVPSGRTTLKIRRPFGTTREVRVKWRYVPEGVGDLATIAPSIRAPQLQKSM chain 2: GYNIGSTDGFLPVIGPVIWESEGLFRAYISSVTDGDGKSHKVGFLRIPTYSWQDMEDFDPSGPPPWEEFAKIIQVFSSNTEALIIDQTNNPGGSVLYLYALLSMLTDRPLELPKHRMILTQDEVVDALDWLTLLENVDTNVESRLALGDNMEGYTVDLQVAEYLKSFGRQVLNCWSKGDIELSTPIPLFGFEKIHPHPRVQYSKPICVLINEQDFSCADFFPVVLKDNDRALIVGTRTAGAGGFVFNVQFPNRTGIKTCSLTGSLAVREHGAFIENIGVEPHIDLPFTANDIRYKGYSEYLDKVKKLVCQLINNDGTIILAEDGSF					KM=0.88 mM	kcat=13.2 5^-1	kcat/KM=1.5×10^4 M^-1s^-1	Ct694, TARP and Ct288 were cleaved	specifically degraded	specifically degraded	broadly inhibited degradation of CPAF substrates in vitro and in vivo	Recombinant CPAF does not cleave chlamydial proteins that are resistant to processing by cytosols form infected HeLa cells	Recombinant CPAF does not cleave chlamydial proteins that are resistant to processing by cytosols form infected HeLa cells	Recombinant CPAF does not cleave chlamydial proteins that are resistant to processing by cytosols form infected HeLa cells	but not a scrambled sequence of equal molecular weight (SEQ ID NO:11)
